Paper PMC12718150

Columns and labels:
[1] = molecular target: 2-hydroxy-hept-2,4-diene-1,7-dioate (HHDD) isomerase (HHDDI) from Acinetobacter baumannii TH (Acinetobacter baumannii TH); test: SEC; single purified enzyme (0.5-1.0 mg/ml) on ENrich SEC650 (10 x 300 mm), buffer G (50 mM HEPES, pH 7.0, 150 mM NaCl), 0.5 ml/min, 4 °C; native MW from a calibration curve of protein standards against subunit MW
[2] = molecular target: 2-hydroxy-hept-2,4-diene-1,7-dioate (HHDD) isomerase (HHDDI) from Acinetobacter baumannii TH (Acinetobacter baumannii TH)
[3] = molecular target: 2-hydroxy-hept-2,4-diene-1,7-dioate (HHDD) isomerase (HHDDI) from Acinetobacter baumannii TH (Acinetobacter baumannii TH); test: SEC; ENrich SEC650 gel filtration column, FPLC; OPETD and HHDDI mixed at 1:1 molar ratio (0.5 and 1.0 mg/ml), incubated on ice in buffer G (50 mM HEPES, pH 7.0, 150 mM NaCl); 0.5 ml/min, 4 °C; native MW from a calibration curve

stoichiometry N [1]	tri-acid decarboxylation activity of the OPETD-HHDDI complex against HHDDI alone (synthesized tri-acid substrate, LC-MS/MS of the di-acid) [2] [fold]	tri-acid decarboxylation activity of the OPETD-HHDDI complex against OPETD alone (synthesized tri-acid substrate, LC-MS/MS of the di-acid) [2] [fold]	stoichiometry N (OPETD per HHDDI) [3]	Substance
2				2-hydroxy-hept-2,4-diene-1,7-dioate (HHDD) isomerase (HHDDI) from Acinetobacter baumannii TH (enzyme)
	12	60	1	5-oxo-pent-3-ene-1,2,5-tricarboxylate (OPET) decarboxylase (OPETD) from Acinetobacter baumannii TH (enzyme)
